# Source: the nanobody polyreactivity screen of Harvey et al. (2022)
# Assay: yeast display, Sf9 membrane polyspecificity reagent, FACS + sequencing; frameworks hold sequencing errors
# Outline: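 Nanobodies came from a synthetic yeast display library in Saccharomyces cerevisiae BJ5465, induced with galactose for 36–48 hours and stained for 1 hour at 4 °C with 10% biotinylated, detergent-solubilized Sf9 membrane reagent. Cells were enriched on streptavidin microbeads and then FACS-sorted, with low and high (top ~1%) gates set on anti-HA fluorescence for expression and streptavidin fluorescence for reagent binding. Each polyreactivity label reflects the gate a clone came from. Genes were amplified by colony PCR, sequenced by MiSeq 2 × 250 and filtered by CDR length.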
row,Sequence,polyreactivity (PSR sort gate)
1,QVQLVESGGGLVQAGGSLRLSCAASGRIFNVYAMGWYRQAPGKERELVAAIRRRGDRTYYADSVKGRFTISRDNAKNTVYLQMNSLKPEDTAVYYCAKSQSAKGGYDYWGQGTQVTVSS,high polyreactivity
2,QVQLVESGGGLVQAGGSLRLSCAASGGIFLYYAMGWYSQAPGKVRELVAAISSRGGSTYYAHSVKGRYTISRDNAKNTVYLQMNSLKPEDTAVYYCAAESGYYRRTGIFYSWGQGTHVTVSS,high polyreactivity
3,QVQLVESGGGLVQAGGSLRLSCAASGIIFEYYAMGWYRQAPGKERELVAAITWNGGRTYYADSVKGRFTISRDNAKNTVYLQMNSLKPEDTAVYYCAARKPRSGGPFDYWGQGTQVTVSS,high polyreactivity
4,QVQLVESGGGLVQAGGSLRLSCAASGSTFQVNAMGWYRQAPGKERELVASISGGSSTNYADSVKGRFTISRDNAKNTVYFQMNSLKPEDTAVYYCAADYLSGLRVAYDYWGQGTQVTVSS,low polyreactivity
5,QVQLVESGGGLVQAGGSLRLSCAASGSTFRLYAMGWYRPAPGKERELVAGISRTGTSTYYADSVKGRFTISRDNAKNTVYLQMNSLKPEDTAVYYCAAVRYWSDYDYWGQGTQVTVSS,high polyreactivity
6,QVQLVESGGGLVQAGGSLRLSCAASGRIFEVYTMGWYRQAPGKERELVAAIDRSTGSTYYADSVKGRFTISRDNAKNTVYLQMNSLKPEDTAVYYCAARGTFLGTRPLGRFDYWGQGTQVTVSS,low polyreactivity
7,QVQLVESGGGLVQAGGSLRLSCAASGSIFEANVMGWYRQAPGKERELVASISSDGTSTYYADSVKGRFTISRDNAKNTVYLQMNSLKPEDTAVYYCNADAGAGWYPDSKYDYDYWGQGTQVTVSS,low polyreactivity
8,QVQLVESGGGLVQAGGSLRLSCAASGRIFALYAMGWYRQAPGKDRELVAAITSSDGSTYYADSVKGRFTISRDIAKNSVYFQMKSLKPEDTAVYYSAAVWWRYYQDPYYYWGQGTQVTVSS,low polyreactivity
9,QVQLVESCGGLVQAGGSLRLSCAASGFTFGSYDMGWYRQAPGKERELVAAITWSGGSTYYADSVKGRFTISRDNAKNTVYLQMNSLKPEDTAVYYCNAYKFHMNYWGQGTQVTVSS,high polyreactivity
10,QVQLVESGGGLVQAGGSLRLSCAASGRTFIVNTMRWYRQAPGKDRELVAAITARGGRTYYADSEKGRFTISRDNAKNTVYLQLNSLKPEDTAVYYCNARTPPREAERYYWGQGTQVTVSS,low polyreactivity
11,QVQLVESGGGLVQAGGSLRLSCAASGFTFWGNAMGWYRQAPGKEREMVAAITDTGSTNYADSVKGRCTISRDNAKNTVYLQMNSLKPEDTAVYYCAKDKAYYDWGQTNGYWGQGTQVTVSS,low polyreactivity
12,QVQLVESGGGLVQAGGSLRLSCAASGRTFRAYTMGWYRQAPGKERELVAAISTPGGSTYYADSVKGRFTISRDNAKNTVYLQMNSLKPEDTAVYYCAADRYYWGQGTQVTVSS,low polyreactivity
13,QVQLVESGGGLVQAGGSLRLSCAASGSNFVIYAMGWYRQAPGKERELVAAIRFSTGSTYYADSVKVRFTNSRDYAKNTVYLQMNSLKPEDTAVYYCAAATWQWPWYDYWGQGTQVTVSS,high polyreactivity
14,QVQLVESGGGLVQAGGSLRLSCAASGFTFGGYAMGWYRQAPGKERELVAAISGRGGRTYYADSVKGRFTISRDNAKNTVYLQMNSLKPEDTAVYYCAAPTNHWTLLSGDYWGQGTQVTVSS,high polyreactivity
15,QVQIVESGGGLVQAGGSLRLSCAASGSTSTLNAMGWYRQAPGTERELVAAISRSGTSTYFADSVKGRFTISRDNAKNTVYLQMNSLKPEDTADYYCAAYSYGPPYYYWGQGTQVTVSS,high polyreactivity
16,QVQLVESGGGLVQAGGSLRLSCAASGITLRGNAMGWYRQSPGKERELVAAIRTSGGRTYYADSVKGRFTISRDNAKNTVYLQMNSLIPEDTAVYYCAADYDSSYAYRTPYGYWGQGTQVTVSS,low polyreactivity
17,QVQLVESGGGLVQAGGSLRLSCAASGFIFVYGNVMGWYRQAPGKERDLVASITSDGGSTNYADSVKGRFTISRDNAKNTVYLQMNSLKPEDTAVYYCNADVPRGFGGEYDYWGQGTQVTVSS,low polyreactivity
18,QVQLVESGGGLVQAGGSLRLSCAASGITFADNARGWYRQAPGKERELVASISNSSGSTYYADSVKGRFTISRDNAKNTVYLQMNSLKPEDTAVYYCATDPYVRRSPSWYDYWGQGTQVTVSS,low polyreactivity
19,QVQLVESGGGLVQAGGSLRLSCAASGYIFERNAMGWYRQAPGKERELVAAITDDGDDTYYADSVKGRFTISRDNAKNTVYLQMNSLKPEETAVYYCAKDLYYGDYYYWGQGTQVTVSS,low polyreactivity
20,QVQLVESGGGLVQAGGSLRLSCAASGFNFGSNAMGWYRQAPGKERELVAAITYSGASTYYADSVKGRFTISRDNAKNTVYLQMNSLKPEDTAVYSCAADLTSYYGGDYWGQGTQVTVSS,low polyreactivity
21,QVQLVESGGGLVQAGGSLRLSCAASGRTFFYYTMGWYRQAPGKERELVAAISRSGGSTYYADSVKGRFTITRDKAKNTVYLQMNSLKPEDTAVYYCAADRSRNFDWGQGTQVTVSS,high polyreactivity

row,Sequence,polyreactivity (PSR sort gate)
1,QVQLVESGGGLVQAGGSLRLSCAASGSTFDYYAMGWYRQAPGKERELVAAISSSGSSTYYADSVKGRFTISRDNAKNTVYLQMNSLKPEDTAVYYCNALSNVPYDYWGQGTQVTVSS,low polyreactivity
2,QVQLVETGVGIVQAGGSLRLSCASSGSNCPLYAMGWYRQAPGKEREFVAAIRWIGGSTYYADSVKRRFTNSRDYAKNSVYLQMISLKPVDTAVYYCAAVYVVSAFDYWGQGTQVSVSS,low polyreactivity
3,QVQLVESGGGLVQAGGSLRLSCAASGFTFRLYAMGWYRPAPGKERELVARISSGGSTHYADSVKGRFTISRDNAKNTVSLQMNSLKPEDTAVYYCAAGWGYWRSYGSWGQGTQVTVSS,high polyreactivity
4,QVQLVESGGGLVQAGGSLRLSCAASGFIFGYYAMGWYRQAPGKERELVAAISGDAGRTYYADSVKGRFTISRDNAKNTVYLQMNSLKAEDTAVYYCAAADTYKMDYWGQGTQVTVSS,low polyreactivity
5,QVQLVESGGGLVQAGGSLRLSCAASGSTFIINAMGWYRQAPGKERELVAAITIGDITNYADSVKGRFTISRDNAKNTVYLQMNSLKPEDTAVYYCNKDALLFWHRDYVLDTYEYWGQGTQVTVSS,low polyreactivity
6,QVQLVESGGCLVQAGGSLRLSCAASGSTFWPYAMGWYRQAPGKERELVAAITSSGGSTYYADSVKGRFTISRDNAKNTVYLQMNSLKPEDTEVYYCAADWSNLGAYDYWGQGTQVTVSS,low polyreactivity
7,QVQLVESGGRLVQAGGSLRLSCAASGRTFGYYAKGLSRQAQGKEREFVAAISFRTTSTYYADSVKGRFTISRDNAKNTVYLQMISLKPEDTAVYYCNVVVKGAWDYYPYDYWGQGPQVTVSS,high polyreactivity
8,QVQLVESGGGLVQAGGSLRLSCAASGIIFKDYAMGWYRQAPGKERELVAAISRGGSTYYADSVKGRFTISRDNAKNTVYLQMNSLKPEDTAVYYCAAAYTAPYYRFGYWGQGTQVTVSS,high polyreactivity
9,QVQLVESGGGLVQAGRSLRLSCAASGSTFKYNAMGWYRQAPGKERELVASISRSGGSTYYADSVKGRFTISRDNAKNTVYLQMNSLKPEDTAGYYCNVRRFVHYEYWGQGSQVTVSS,high polyreactivity
10,QVQLVESGGGLGQAGGSLRLSCAASGSTFQIYAMGWYREAPGKEWEFVAAITSSSSTNYADSVKGRFTISRDNAKNTVYLQMNSLKPEDTAVYYCAADVSWRSNWYDYWGQGTQVTVSS,low polyreactivity
11,QVQLVESGGGLVQAVGSLRLSCAASGITFRWYTMGWYRQAPGKERELVASIRYGGGSTYYADSVKGRFTISRDNAKNTVYLQMNSLKPEDTAVYYCDAESAWTSPYDYWGQGTQVTVSS,high polyreactivity
12,QVQLVESGGGLVQAGGSLRLSCAASGFIYARYAMGWYRQAPGKERELVAGISGGGGRTYYADSVKGRFTISRDNAKNTVYLQMNSLKPEDTAVYYCAATPQSRDRRFNYWGQGTQVTVSS,high polyreactivity
13,QVQLVESGGGLVQAGGSLRLSCAASGRTFYRYVMGWYRQAPGKERELVAAITPGGSTYADSVKGRFTISRDNAKNTVYLQMNSLKPEDTAVYYCNAKVGAYLNYGYWGQGTQVTVSS,low polyreactivity
14,QVQLVESGGGLVQAGGSLRLSCAASGRTFVFNAMGWYRPAPGKERELVAAITKNGGSTYYADSVKGRFTISRDNAKNTVYLQMNSLKPEDTAVYYCAAQWWRLYWEYYYWGQGTQVTVSS,low polyreactivity
15,QVQLVESGGGLVQAGGSLRLSCAASGITFWWYAMGWYRQAPGKERELVAAITGGGSTNYADSVKGRFTISRDNAKNTVYLQMNSLKPEDTAVYYCAATGSPARNWDTVTGYYYWGQGTQVTVSS,low polyreactivity
16,QVQLVESGGGLVQAGGSLRLSCAASGFTFYRYVMGWYRQAPGKERELVAAITGGGRTYYADSVKGRFTISRDNAKNTVYLQMNSLKPEDTAVYYCNKAVPAWGLYDYWGQGTQVTVSS,low polyreactivity
17,QVHLVESGGGLVQAGGSLRLSCAASGDTFVKYAMGWYRQAPGKERELVAAISSGGRTYYADSVKGRFTISRDNAKNTVYLQMNSLKPEDTAVYFCNAVRPYRLASYDYWGQGTQVTVSS,high polyreactivity
18,QVQLVESGGGLVQAGGSLRLSCAASGFIFLFNAMGWYRQAPGKERELVATNSSGGSTYYADSVKGRFTISLDNAKNTVYLQMTSLKPEDTAVYYCNAGPARTVYAQSSYVLYDYWGQGTQVTVSS,low polyreactivity
19,QVQLVESGGGLVQAGGSLRLSCAASGPILGQYAMGWYRQAPGKDRELVAAITYSGGRTYYADSVKGRFTLSRDNAKNTVYLQMNSLKPEDTAVYYCAARGRASVERRGGYYYWGQGTQVTVSS,high polyreactivity
20,QVQHVESGGGLVQAGGSLRLRCAASGRTFGQNTMGWSRQAPGKERELVAAISWSGDSTYYADSVKGRFTISRDNAKNTVYLQMNSLKTEDSAVYYCAADPYNYYVSGYDYWGQGTQVTVSS,low polyreactivity
